Among the data in patent US9499608 are Kd values, retold here.

Assay [1] has as its target WNV DIII fragment (residues 296-404) of the New York 1999 strain, expressed in E. coli and refolded (West Nile virus, New York 1999 strain) (UniProt Q9Q6P4). The experiment in a line: SPR.
The target of assay [2] is WNV E ectodomain (residues 1-404) of the New York 1999 strain, expressed in E. coli and refolded (West Nile virus, New York 1999 strain) (UniProt Q9Q6P4). The assay can be described thus: SPR. (In general: SPR reads the build-up and loss of mass on a sensor chip optically.)

One may read the Kd as a measure of binding affinity in units of concentration. Read a high Kd as lower affinity. Regarding “mHu-E16 (mammalian CHO cell-produced humanized E16 monoclonal antibody)”, the values for the Kd in assay [1] and in assay [2] were 32 nM and 45 nM, respectively.
Consider “pHu-E16 (plant-produced humanized E16 monoclonal antibody against West Nile virus)”, for which the equilibrium dissociation constant (Kd) came out at 41 nM in assay [1] and 46 nM in assay [2].
